Here are results for one molecule from PMC9651861 (Science Advances, 2022).

The target in this assay is T1, Trimeric His-Tagged SARS-CoV-2 Spike Glycoprotein, labelled with Alexa Fluor 647 (SARS-CoV-2, original (Wuhan-Hu-1) strain, UniProt P0DTC2, Alexa Fluor 647 (N-hydroxysuccinimide ester), estimated 13:1 dye to protein).
T1 construct: also called full trimeric spike protein; spike protein
The assay is described as follows: MST. Particulars: both partners purified.

B1: DesAb-HSA-P2 (VHH)
VHH: EVQLEESGGGLVQPGGSLRLSCAASGFNIKDTYIGWVRQAPGKGEEWVASIYPTSGYTRYADSVKGRFTISADTSKNTAYLQMNSLRAEDTAVYYCAAGSAQAGNAEEAEEEFDYWGQGTLVTVSS
Take B1: the binding result is “no binding (tested: 4 μM)”.
